Assay results as given in the supplement of paper PMC9170038.

Test system: MS2 coat protein
Assay: apparent KD of MS2 coat protein; designed switch direction (-1 OFF switch, 1 ON switch): 1; higher = weaker reporter binding
How it was run: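 Normalised cluster fluorescence was curve-fitted, and each design's median over clusters is its apparent KD. Before this, SNAP-549-labelled MS2 coat protein was titrated from 0.7 or 1.5 nM, doubling to 3 µM, over RNA switches transcribed on Illumina chips by stalled E. coli RNA polymerase. Titrations had no input, 200 uM small-molecule ligand, or an oligonucleotide input, and steps lasted 0.8–1.5 h (lowest) to 10–20 min (highest).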

[1] = input ligand: microRNA oligo, concentration not stated
[2] = Eterna round: R95, input ligand: FMN 200 uM
[3] = Eterna round: R95, input ligand: microRNA oligo, concentration not stated
[4] = Eterna round: R95, input ligand: none

AUAAUACAUGAGGAUCACCCAUGUAAUUUAACUUGUAAGAUCAAGGAUAUCAGCUCGAUUAGAGCUGAGAAGGUGAUCACAUGU [SSNG3/20-A2] (Eterna round: R96, puzzle: Same State NG 3)
apparent KD of MS2 coat protein [1]: 69.1 nM

AUACAUAUCAGAGGAUAUCACGUCGAUUAGACGUGAGAAGGCUGAUCACACAUGAAUAUUAAUACAUGAGGAUCACCCAUGUAU [SSNG1/14-A2] (Eterna round: R96, puzzle: Same State NG 1)
apparent KD of MS2 coat protein (input ligand: FMN 200 uM): 20.6 nM
apparent KD of MS2 coat protein [1]: 14.8 nM
apparent KD of MS2 coat protein (input ligand: none): 18.8 nM

AUAGUUUCCGAAGGAUAUGAUGAGGAUCACCCAUCAGAAGGUUGGCUAUUGGGCUGACAUGAGGAUCACCCAUGUUCUGGUGUU (Eterna round: R96, puzzle: Same State NG 1)
apparent KD of MS2 coat protein (input ligand: FMN 200 uM): 39.1 nM
apparent KD of MS2 coat protein [1]: 33.2 nM
apparent KD of MS2 coat protein (input ligand: none): 57 nM

AUAUGAGAAGCAGGAUAUGUGGAGAAGAAACAAACAGAAGGGUUUAUGGGACAACAUGAGGAUCACCCAUGUUCUCUGUGAUGA [AK SSNG1-V2-2] (Eterna round: R96, puzzle: Same State NG 1)
apparent KD of MS2 coat protein (input ligand: FMN 200 uM): 52.5 nM
apparent KD of MS2 coat protein [1]: 44.3 nM
apparent KD of MS2 coat protein (input ligand: none): 59.2 nM

AUAUGAGAAGCAGGAUAUGUGGAGAAGAAAGAAACAGAAGGGCUUAUGGGACAACAUGAGGAUCACCCAUGUUCUCUGUGAUGA [AK SSNG1-V2-2.1] (Eterna round: R96, puzzle: Same State NG 1)
apparent KD of MS2 coat protein (input ligand: FMN 200 uM): 42.8 nM
apparent KD of MS2 coat protein [1]: 144 nM
apparent KD of MS2 coat protein (input ligand: none): 188 nM

AUGAAGAAUUAAGGAUAUUGAAUACAUAUGUUUAACAUGAGGAUCACCCAUGUGGGUUGCGGUAUCGAGAAGGUAAAAUAAUAG [Mat - same State NG 2 - JL mod - D91] (Eterna round: R96, puzzle: Same State NG 2)
apparent KD of MS2 coat protein (input ligand: FMN 200 uM): 162 nM
apparent KD of MS2 coat protein [1]: 79.4 nM
apparent KD of MS2 coat protein (input ligand: none): 136 nM

AUGGUGCAGGUACAGGAUAUGUUGCUCGUAACAUGAGGAUCACCCAUGUACCUAUGAGAAUAAAUGCAGAAGGGUGCACACCACG [Mat - Same State 2 - Mod of UCT - D92] (puzzle: Same State 2)
apparent KD of MS2 coat protein [2]: 57 nM
apparent KD of MS2 coat protein [3]: 3220 nM
apparent KD of MS2 coat protein [4]: 156 nM

AUGGUGCAGGUACAGGAUAUGUUGCUCGUAACAUGAGGAUCACCCAUGUACCUAUGAGAUUAAAUGCAGAAGGGUGCACACCACU [Mat - Same State 2 - Mod of UCT - D89] (puzzle: Same State 2)
apparent KD of MS2 coat protein [2]: 77.1 nM
apparent KD of MS2 coat protein [3]: 613 nM
apparent KD of MS2 coat protein [4]: 158 nM

AUUAAACAUGAGGAUCACCCAUGUCAACAAAGUCGAGGAUAUGGGCAUAUUAUAUAAUAACCAGAAGGCGAAUAAU [salish99_ss1_r3_084] (puzzle: Same State 1)
apparent KD of MS2 coat protein [2]: 11.1 nM
apparent KD of MS2 coat protein [3]: 12.8 nM
apparent KD of MS2 coat protein [4]: 13.8 nM

AUUAUUAAUGCAGGAUAUGAUUAACAUGAGGAUCACCCAUGUGGUGUUGUGAGUAAGGAGAGUGAUCAGAAGGGCAUUUUGUUU [JMF's solution 12] (Eterna round: R96, puzzle: Same State NG 2)
apparent KD of MS2 coat protein (input ligand: FMN 200 uM): 1130 nM
apparent KD of MS2 coat protein [1]: 526 nM
apparent KD of MS2 coat protein (input ligand: none): 591 nM

AUUAUUAAUGCAGGAUAUGAUUAACAUGAGGAUCACCCAUGUGGUGUUGUGAGUAAGGAGAGUGAUCAGAAGGGCAUUUUUUCU [JMF's solution 17] (Eterna round: R96, puzzle: Same State NG 2)
apparent KD of MS2 coat protein (input ligand: FMN 200 uM): 558 nM
apparent KD of MS2 coat protein [1]: 442 nM
apparent KD of MS2 coat protein (input ligand: none): 585 nM

AUUCGUUUGAUAGGAUAUCACUUUACAUGAGGAUCACCCAUGUUCACCACGCUGGUUUCUUAUACUGAGAAGGAUCUUGAUGAC [JR_SSNG2_Sub010] (Eterna round: R96, puzzle: Same State NG 2)
apparent KD of MS2 coat protein (input ligand: FMN 200 uM): 19.5 nM
apparent KD of MS2 coat protein [1]: 17.1 nM
apparent KD of MS2 coat protein (input ligand: none): 31.3 nM

AUUGCUUACGCAGGAUAUGAUGCGAAAAUUGCGUCAGAAGGGUGAAGUAUCUCAUUGCAACAGGACAUGAGGAUCACCCAUGUC [SameState NG1 #99] (Eterna round: R96, puzzle: Same State NG 1)
apparent KD of MS2 coat protein (input ligand: FMN 200 uM): 150 nM
apparent KD of MS2 coat protein [1]: 303 nM
apparent KD of MS2 coat protein (input ligand: none): 455 nM

AUUGCUUACGCAGGAUAUGAUGCGGAAACUGCGUCAGAAGGGUGAACAGAAUCGUUGCAAGAAGACAUGAGGAUCACCCAUGUC [SameState NG1 #96] (Eterna round: R96, puzzle: Same State NG 1)
apparent KD of MS2 coat protein (input ligand: FMN 200 uM): 33.9 nM
apparent KD of MS2 coat protein [1]: 33.5 nM
apparent KD of MS2 coat protein (input ligand: none): 44.4 nM

AUUGCUUUCGCAGGAUAUGAUGCGAAAAUUGCGUCAGAAGGGUGGAGUAUCUCAUUGCAACAGGACAUGAGGAUCACCCAUGUC [SameState NG1 #88] (Eterna round: R96, puzzle: Same State NG 1)
apparent KD of MS2 coat protein (input ligand: FMN 200 uM): 56.7 nM
apparent KD of MS2 coat protein [1]: 140 nM
apparent KD of MS2 coat protein (input ligand: none): 248 nM

AUUUUUAAUGCAGGAUAUGAUUAACAUGAGGAUCACCCAUGUGGUGUUGUGAGUAAGGAGAGUGAUCAGAAGGGCAUUUUUUUA [JMF's solution 89] (Eterna round: R96, puzzle: Same State NG 2)
apparent KD of MS2 coat protein (input ligand: FMN 200 uM): 1010 nM
apparent KD of MS2 coat protein [1]: 554 nM
apparent KD of MS2 coat protein (input ligand: none): 585 nM
